From CN117603356A (HAIBO HUAJIAN HUZHOU PHARMACEUTICAL TECH CO LTD, dated 2024)

Biological target: T1, Human-pIgR-ECD-his抗原重组蛋白 (human, UniProt P01833 19-638)
T1 construct: extracellular domain; Recombinant antigen coated on the ELISA plate (200 ng/well); also called PI蛋白; not shown: his tag
Assay: ELISA, antigen coated, anti-human IgG Fc HRP

T1 sequence (P01833 19-638): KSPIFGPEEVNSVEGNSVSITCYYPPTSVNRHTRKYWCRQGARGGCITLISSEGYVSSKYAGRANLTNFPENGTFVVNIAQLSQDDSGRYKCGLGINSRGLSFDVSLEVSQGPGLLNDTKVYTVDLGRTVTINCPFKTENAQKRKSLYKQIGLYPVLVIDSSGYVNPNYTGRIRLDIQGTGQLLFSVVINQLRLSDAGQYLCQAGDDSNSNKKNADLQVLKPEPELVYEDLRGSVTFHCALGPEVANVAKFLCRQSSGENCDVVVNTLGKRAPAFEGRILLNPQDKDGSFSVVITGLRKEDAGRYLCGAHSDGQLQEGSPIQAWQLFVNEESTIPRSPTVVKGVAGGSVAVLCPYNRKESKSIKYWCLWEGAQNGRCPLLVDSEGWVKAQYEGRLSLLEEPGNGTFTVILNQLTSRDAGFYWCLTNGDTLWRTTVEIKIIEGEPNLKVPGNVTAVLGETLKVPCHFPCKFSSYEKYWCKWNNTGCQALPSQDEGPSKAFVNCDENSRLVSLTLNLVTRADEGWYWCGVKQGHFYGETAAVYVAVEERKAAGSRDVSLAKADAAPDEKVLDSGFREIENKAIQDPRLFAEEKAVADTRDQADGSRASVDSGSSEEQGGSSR

Row | Binder | binding result
1 | PI-21-hFc (Fc fusion, VHH inserted into the pFCIG-hIgG1 plasmid, expressed in HEK293F; also called 单克隆PI-21-hFc; not shown: human IgG1 Fc fragment (hFC) from the bought expression plasmid pFCIG-hIgG1) QVKLVQSGGGLVQPGGSLRLSCAASGFTFENYAMGWLRQAPGEGLEWVSSINYNGDVTAYTTSVKGRFTVSRDNAKNTLYLQLNDLKIDDTAMYYCAKGRYGWALSREDYNTRGQGTQVTVSS | binds
2 | PI-19-hFc (Fc fusion, VHH inserted into the pFCIG-hIgG1 plasmid, expressed in HEK293F; also called 单克隆PI-19-hFc; not shown: human IgG1 Fc fragment (hFC) from the bought expression plasmid pFCIG-hIgG1) EVQLVESGGGSVQAGGSLRLSCAASGITISNNCMGWFRQAPGKEREGVALLYSTSSTSSQKSHADSVKGRFTISRDNAKNTVYLQMNSLKPEDSAMYYCAAKSGVCRWNWEYGMDYWDWGKGTLVTISS | binds

Now from value to binder:

Row | binding result | Binder
3 | binds | PI-28-hFc (Fc fusion, VHH inserted into the pFCIG-hIgG1 plasmid, expressed in HEK293F; also called 单克隆PI-28-hFc; not shown: human IgG1 Fc fragment (hFC) from the bought expression plasmid pFCIG-hIgG1) EVKLVESGGGSVQAGGSLRLSCAASGYTYSSACMGWFRQAPGKERDWVALIDGIGSTTYTDSVKGRFTISQDNAKNTLYLQMNSLKPEDTATYYCAADLLSGGYCHPVGGGARDWGGPVVADFTYWGQGTQVTVSS
4 | binds | PI-74-hFc (Fc fusion, VHH inserted into the pFCIG-hIgG1 plasmid, expressed in HEK293F; also called 单克隆PI-74-hFc; not shown: human IgG1 Fc fragment (hFC) from the bought expression plasmid pFCIG-hIgG1) EVKLVESGGGSVQAGGSLRLSCTASGPTYGRTCMGWFRQAPGREREGVATIETKGLTRYTYYADSVKGRFTISQDDAKNTLYLQMNSLKPEDTAMYYCAADGPGCSGGAFIARGRWYPHWGQGTQVTVSS
